This data set has as its system GST-GFP fusion protein expressed from pJB-HTS-GFP (GST, hexa-histidine tag, thrombin cleavage site LVPRGS, GFP) [GST: P08515].

Sequence of GST-GFP fusion protein expressed from pJB-HTS-GFP (GST, hexa-histidine tag, thrombin cleavage site LVPRGS, GFP) [GST: P08515] (P08515 whole entry, looked up, the tested form may be a part): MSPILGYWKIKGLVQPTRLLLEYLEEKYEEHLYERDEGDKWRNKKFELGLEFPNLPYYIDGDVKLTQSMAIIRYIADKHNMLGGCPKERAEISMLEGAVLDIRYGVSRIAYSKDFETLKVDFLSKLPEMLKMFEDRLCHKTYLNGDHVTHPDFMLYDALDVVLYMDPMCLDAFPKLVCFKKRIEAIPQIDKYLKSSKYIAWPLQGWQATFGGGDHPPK

Regarding thrombin, the “Michaelis-Menten constant (Km) of thrombin cleavage of GST-GFP associated with PEGDA-GSH microspheres, SDS-PAGE densitometry” value is reported as “significantly increased from approximately 0.18 µM to 0.30 µM” and the “Michaelis-Menten constant (Km) of thrombin cleavage of free GST-GFP, SDS-PAGE densitometry” value was “significantly increased from approximately 0.18 µM to 0.30 µM”.

The record behind these values is patent US20150258211.
